Experiment in all cases: cell-based or functional assay
In assay [1] the target is T1, GALR2 (UniProt O43603 1-387).
T1 sequence (looked up): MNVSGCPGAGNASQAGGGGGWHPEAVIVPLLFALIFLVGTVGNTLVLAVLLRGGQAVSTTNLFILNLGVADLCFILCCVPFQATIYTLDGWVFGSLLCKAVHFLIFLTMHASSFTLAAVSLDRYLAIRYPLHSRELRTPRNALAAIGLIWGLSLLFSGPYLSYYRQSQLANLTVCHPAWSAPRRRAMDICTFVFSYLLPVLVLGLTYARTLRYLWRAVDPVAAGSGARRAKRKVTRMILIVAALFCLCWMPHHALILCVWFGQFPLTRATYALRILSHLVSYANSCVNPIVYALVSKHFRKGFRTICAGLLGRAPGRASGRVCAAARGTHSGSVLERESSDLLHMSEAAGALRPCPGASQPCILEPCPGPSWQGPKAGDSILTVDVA

Assay [2] concerns the target T2, CALCR (UniProt P30988 25-474, limits assumed).
T2 sequence (looked up): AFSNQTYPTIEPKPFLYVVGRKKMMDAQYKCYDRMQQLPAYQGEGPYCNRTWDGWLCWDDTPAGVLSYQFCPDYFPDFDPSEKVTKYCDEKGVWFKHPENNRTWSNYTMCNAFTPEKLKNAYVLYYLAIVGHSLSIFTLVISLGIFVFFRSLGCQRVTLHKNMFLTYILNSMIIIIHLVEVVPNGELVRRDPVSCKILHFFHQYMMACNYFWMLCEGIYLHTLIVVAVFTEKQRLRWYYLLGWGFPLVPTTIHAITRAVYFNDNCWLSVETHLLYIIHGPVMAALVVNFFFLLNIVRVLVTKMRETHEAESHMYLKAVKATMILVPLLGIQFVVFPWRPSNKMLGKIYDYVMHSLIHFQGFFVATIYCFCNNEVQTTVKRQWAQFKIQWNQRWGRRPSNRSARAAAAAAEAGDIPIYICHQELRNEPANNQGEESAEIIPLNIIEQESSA

Assay [3] has as its target DRD2S (UniProt P14416-2 1-414).
For assay [4], the target named is T3, ADRA2B (UniProt P18089 1-450).
T3 sequence (looked up): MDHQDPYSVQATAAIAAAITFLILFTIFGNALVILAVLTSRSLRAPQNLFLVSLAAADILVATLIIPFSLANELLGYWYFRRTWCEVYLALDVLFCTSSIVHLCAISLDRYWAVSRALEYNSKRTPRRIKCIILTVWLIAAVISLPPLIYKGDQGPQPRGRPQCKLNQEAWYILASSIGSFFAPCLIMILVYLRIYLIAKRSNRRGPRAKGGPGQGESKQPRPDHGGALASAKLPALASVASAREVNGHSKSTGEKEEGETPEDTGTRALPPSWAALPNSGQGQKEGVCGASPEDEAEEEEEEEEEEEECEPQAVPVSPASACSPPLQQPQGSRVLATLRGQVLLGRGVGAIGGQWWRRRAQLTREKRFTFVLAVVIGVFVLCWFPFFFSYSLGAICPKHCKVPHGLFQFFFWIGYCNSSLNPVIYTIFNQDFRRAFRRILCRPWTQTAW

Assay [5] addresses PTGER2 (UniProt P43116 1-358).
Assay [6] deals with T4, BDKRB1 (UniProt P46663 1-353).
T4 sequence (looked up): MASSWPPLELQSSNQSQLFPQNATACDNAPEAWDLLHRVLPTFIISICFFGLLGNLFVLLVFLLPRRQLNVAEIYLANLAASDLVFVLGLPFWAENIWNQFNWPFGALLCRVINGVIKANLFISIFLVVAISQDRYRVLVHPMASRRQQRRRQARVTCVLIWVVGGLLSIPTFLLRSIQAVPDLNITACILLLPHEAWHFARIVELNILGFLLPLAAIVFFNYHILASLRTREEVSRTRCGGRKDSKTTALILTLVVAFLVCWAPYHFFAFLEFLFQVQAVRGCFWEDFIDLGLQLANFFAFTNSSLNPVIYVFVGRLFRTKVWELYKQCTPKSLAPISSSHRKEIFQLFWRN

The target of assay [7] is SSTR3 (UniProt P32745 1-418).
Sequence of SSTR3 (P32745 whole entry): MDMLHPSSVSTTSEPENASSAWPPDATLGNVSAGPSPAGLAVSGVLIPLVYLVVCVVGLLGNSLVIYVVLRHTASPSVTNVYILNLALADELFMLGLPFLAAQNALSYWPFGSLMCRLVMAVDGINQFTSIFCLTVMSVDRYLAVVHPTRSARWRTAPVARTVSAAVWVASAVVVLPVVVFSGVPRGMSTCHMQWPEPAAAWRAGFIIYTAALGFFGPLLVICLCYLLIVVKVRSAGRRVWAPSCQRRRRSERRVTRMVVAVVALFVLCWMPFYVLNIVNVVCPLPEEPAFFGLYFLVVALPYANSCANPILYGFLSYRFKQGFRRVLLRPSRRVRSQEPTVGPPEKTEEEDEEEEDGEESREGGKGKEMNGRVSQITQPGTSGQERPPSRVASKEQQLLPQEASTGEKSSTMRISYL
Assay [8] concerns the target T5, UTR2 (UniProt Q9UKP6 1-389).
T5 sequence (looked up): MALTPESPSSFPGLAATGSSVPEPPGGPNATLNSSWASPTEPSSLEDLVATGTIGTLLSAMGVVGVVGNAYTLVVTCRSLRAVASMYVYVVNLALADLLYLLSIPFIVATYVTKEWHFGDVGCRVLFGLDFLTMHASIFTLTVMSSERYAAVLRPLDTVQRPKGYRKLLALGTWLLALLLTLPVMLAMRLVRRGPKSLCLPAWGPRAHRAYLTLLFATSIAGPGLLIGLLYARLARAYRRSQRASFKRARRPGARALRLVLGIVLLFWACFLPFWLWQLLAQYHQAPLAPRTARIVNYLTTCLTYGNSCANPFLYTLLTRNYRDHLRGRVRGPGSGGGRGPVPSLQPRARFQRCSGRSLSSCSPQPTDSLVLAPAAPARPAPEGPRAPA

For assay [9], the target named is HTR1E (UniProt P28566 1-365).
Sequence of HTR1E (P28566 whole entry): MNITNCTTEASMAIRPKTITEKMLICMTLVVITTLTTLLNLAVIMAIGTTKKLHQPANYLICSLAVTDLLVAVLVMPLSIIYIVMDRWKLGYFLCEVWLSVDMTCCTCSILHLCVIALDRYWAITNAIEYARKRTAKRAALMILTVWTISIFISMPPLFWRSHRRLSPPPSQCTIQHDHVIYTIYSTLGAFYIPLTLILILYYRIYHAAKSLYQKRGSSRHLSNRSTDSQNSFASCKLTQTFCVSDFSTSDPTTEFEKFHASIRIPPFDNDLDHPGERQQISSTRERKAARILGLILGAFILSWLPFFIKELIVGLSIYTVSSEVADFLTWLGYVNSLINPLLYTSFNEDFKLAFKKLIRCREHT
Assay [10] deals with T6, relaxin-3 receptor (RXFP3) (UniProt Q9NSD7 1-469).
T6 sequence (looked up): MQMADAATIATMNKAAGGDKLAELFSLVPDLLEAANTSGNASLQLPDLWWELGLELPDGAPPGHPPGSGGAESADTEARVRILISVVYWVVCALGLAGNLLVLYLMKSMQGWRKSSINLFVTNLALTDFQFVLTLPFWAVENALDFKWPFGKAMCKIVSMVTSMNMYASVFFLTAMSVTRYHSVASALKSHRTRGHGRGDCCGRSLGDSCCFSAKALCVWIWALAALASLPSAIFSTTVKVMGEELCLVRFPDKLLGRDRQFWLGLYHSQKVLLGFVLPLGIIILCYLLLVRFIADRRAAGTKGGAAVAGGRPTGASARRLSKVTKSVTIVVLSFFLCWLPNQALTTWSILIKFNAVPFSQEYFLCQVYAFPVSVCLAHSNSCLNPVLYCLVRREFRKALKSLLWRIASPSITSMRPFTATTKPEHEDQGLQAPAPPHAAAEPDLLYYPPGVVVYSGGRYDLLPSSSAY

The values below come from patent publication US20260184748A1 (University of Pennsylvania, published 2026).

Where no end group is shown, it is not given here.

Sequence of DRD2S (P14416 other isoform, or with tags, fused parts or gaps limits assumed): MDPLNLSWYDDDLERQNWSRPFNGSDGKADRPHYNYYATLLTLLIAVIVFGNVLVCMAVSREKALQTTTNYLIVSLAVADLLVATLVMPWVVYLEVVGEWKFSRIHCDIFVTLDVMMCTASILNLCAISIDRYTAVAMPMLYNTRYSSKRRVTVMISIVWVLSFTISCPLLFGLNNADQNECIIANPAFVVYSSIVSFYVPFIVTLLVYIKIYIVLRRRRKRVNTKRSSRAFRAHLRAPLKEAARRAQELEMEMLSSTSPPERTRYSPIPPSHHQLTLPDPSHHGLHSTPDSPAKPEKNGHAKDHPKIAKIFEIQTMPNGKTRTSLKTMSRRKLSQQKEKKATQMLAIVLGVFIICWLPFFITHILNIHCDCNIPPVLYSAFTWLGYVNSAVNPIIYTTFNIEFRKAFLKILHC
Sequence of PTGER2 (P43116 whole entry): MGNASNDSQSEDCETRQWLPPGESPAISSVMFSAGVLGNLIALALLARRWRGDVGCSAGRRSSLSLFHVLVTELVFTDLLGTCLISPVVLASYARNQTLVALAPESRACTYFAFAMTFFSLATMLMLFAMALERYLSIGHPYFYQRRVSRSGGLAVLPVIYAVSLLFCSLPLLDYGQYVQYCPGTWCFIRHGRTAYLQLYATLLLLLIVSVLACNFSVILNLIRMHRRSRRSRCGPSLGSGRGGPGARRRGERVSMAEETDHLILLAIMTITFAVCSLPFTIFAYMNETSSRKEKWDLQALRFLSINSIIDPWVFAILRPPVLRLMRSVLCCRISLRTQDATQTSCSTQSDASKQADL

For QATVGDVNTDRPGLLDLK (also: synthesised on Rink amide resin, C-terminal amide not given here outright) [octadecaneuropeptide (ODN)], the “% Activity, arrestin, antagonist mode, 2.5 uM” value in assay [1] was -29.7%; in assay [2], -22.3%; in [3], -13.4%; in assay [4], -36.8%; in assay [5], 2.1%; in [6], -5.7%. Moreover, the “% Activity, arrestin, antagonist mode, 2.5 uM” value in assay [7] was 4.2%; in [8], -27.2%; in assay [9] it was -3.8%; in [10] it was 31.4%.
